From US20220389118A1 (Chugai, published 2022)
Changes are numbered by the printed parent chain.

T1: human FcγRIIa type H (allotype H131) extracellular domain with C-terminal His tag (human, UniProt P12318 34-217)
T1 construct: extracellular domain; also called FcγRIIaH; FcγRIIa H type; not shown: His tag at the C terminus
T1 sequence (looked up): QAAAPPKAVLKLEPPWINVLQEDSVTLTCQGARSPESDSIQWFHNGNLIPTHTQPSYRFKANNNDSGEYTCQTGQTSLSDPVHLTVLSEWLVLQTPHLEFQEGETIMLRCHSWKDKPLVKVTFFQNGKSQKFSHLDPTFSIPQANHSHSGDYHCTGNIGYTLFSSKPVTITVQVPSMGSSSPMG

T2: human FcγRIIb extracellular domain with C-terminal His tag (human, UniProt P31994 43-217)
T2 construct: extracellular domain
T2 sequence (looked up): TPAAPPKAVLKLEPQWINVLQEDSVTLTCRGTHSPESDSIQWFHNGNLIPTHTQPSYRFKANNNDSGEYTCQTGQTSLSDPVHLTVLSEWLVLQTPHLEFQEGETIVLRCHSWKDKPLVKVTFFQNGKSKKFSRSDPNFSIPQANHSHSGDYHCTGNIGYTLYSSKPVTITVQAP

T3: human FcγRIIa type R extracellular domain with C-terminal His tag (human, UniProt P12318 34-217)
T3 construct: extracellular domain; also called FcγRIIaR; FcγRIIa(R)
T3 sequence (looked up): T1 sequence (looked up) with H134R

T4: human FcγRIIa type H extracellular domain with C-terminal His tag (human, UniProt P12318 34-217)
T4 construct: extracellular domain; also called FcγRIIaH; FcgRIIaH
T4 sequence (looked up): T1 sequence (looked up)

T5: human FcγRIIb extracellular domain with C-terminal His tag (human, UniProt P31994 43-217)
T5 construct: extracellular domain; also called FcgRIIb
T5 sequence (looked up): T2 sequence (looked up)

T6: soluble human IL-6 receptor (human, UniProt P08887 20-357)
T6 construct: also called hsIL-6R
T6 sequence: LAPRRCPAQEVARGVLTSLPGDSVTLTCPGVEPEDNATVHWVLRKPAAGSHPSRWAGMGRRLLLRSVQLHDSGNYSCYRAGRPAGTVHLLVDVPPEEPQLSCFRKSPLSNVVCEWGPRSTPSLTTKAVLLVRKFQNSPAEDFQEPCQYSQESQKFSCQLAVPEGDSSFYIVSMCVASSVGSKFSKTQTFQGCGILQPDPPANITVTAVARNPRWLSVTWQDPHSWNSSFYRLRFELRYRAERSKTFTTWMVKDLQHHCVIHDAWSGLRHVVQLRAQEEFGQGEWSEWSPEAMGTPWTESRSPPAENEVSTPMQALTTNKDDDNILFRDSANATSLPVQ

B1: IL6R-BP241/IL6R-L (antibody, human IgG1, kappa)
heavy: QVQLQESGPGLVKPSETLSLTCAVSGHSISHDHAWSWVRQPPGEGLEWIGFISYSGITNYNPSLQGRVTISRDNSKNTLYLQMNSLRAEDTAVYYCARSLARTTAMDYWGEGTLVTVSSASTKGPSVFPLAPSSKSTSGGTAALGCLVKDYFPEPVTVSWNSGALTSGVHTFPAVLQSSGLYSLSSVVTVPSSSLGTQTYICNVNHKPSNTKVDKKVEPKSCDKTHTCPPCPAPDLLGDDSVFLFPPKPKDTLMISRTPEVTCVVVDVSDEDGEVKFNWYVDGVEVHNAKTKPREEQYNSTYRVVSVLTVLHQDWLNGKEYKCKVSNDALPRPIEKTISKAKGQPREPQVYTLPPSRDELTKNQVSLTCLVKGFYPSDIAVEWESNGQPENNYKTTPPVLDSDGSFFLYSKLTVDKSRWQQGNVFSCSVMHEALHNHYTQESLSLSP
light: not shown
notes: copies: 2 + 2
B2: IL6R-BP234/IL6R-L (antibody, human IgG1, kappa)
heavy: B1 heavy with L236Y, S269Q, Y298D, R332K
light: not shown
notes: copies: 2 + 2
B3: IL6R-BP238/IL6R-L (antibody, human IgG1, kappa)
heavy: B1 heavy with L236Y, Y298D, D328A
light: not shown
notes: copies: 2 + 2
B4: IL6R-BP500/IL6R-L (antibody, human IgG1, kappa)
heavy: B1 heavy with D235E, V266I, S269A, D270E, Y298D, D328K, R332A
light: not shown
notes: copies: 2 + 2
B5: IL6R-BP559/IL6R-L (antibody, human IgG1, kappa)
heavy: B1 heavy with D235E, D239G, V266I, S269A, D270E, E274D, Y298D, D328K, R332A
light: not shown
notes: copies: 2 + 2
B6: IL6R-BP492/IL6R-L (antibody, human IgG1, kappa)
heavy: B1 heavy with D235E, D239G, V266I, S269A, D270E, D328K, R332A
light: not shown
notes: copies: 2 + 2
B7: IL6R-2B261/IL6R-L (antibody, human IgG1, kappa)
heavy: B1 heavy with D239G, D270H, G273P, Y298D, D328K, R332A
light: not shown
notes: EU numbering; alterations on IL6R-B3; copies: 2 + 2
B8: IL6R-BP180/IL6R-L (antibody, human IgG1, kappa)
heavy: B1 heavy with D235E, D270H, D328K, R332K
light: not shown
notes: EU numbering; alterations on IL6R-B3; also called IL6R-BF180/IL6R-L; copies: 2 + 2
B9: IL6R-BP182/IL6R-L (antibody, human IgG1, kappa)
heavy: B1 heavy with D239G, D270H, Y298D, D328K, R332K
light: not shown
notes: as for B7
B10: IL6R-BP084/IL6R-L (antibody, human IgG1, kappa)
heavy: B1 heavy with D235E, D239G, D270H, G273P, V325M, D328K, R332K
light: not shown
notes: as for B7
B11: IL6R-BP148/IL6R-L (antibody, human IgG1, kappa)
heavy: B1 heavy with L236Y, D270H, G273P, D328A, R332K
light: not shown
notes: as for B7
B12: IL6R-BP151/IL6R-L (antibody, human IgG1, kappa)
heavy: B1 heavy with L236Y, D270H, G273P, D328A
light: not shown
notes: as for B7
B13: IL6R-BP130/IL6R-L (antibody, human IgG1, kappa)
heavy: B1 heavy with D239G, D270H, G273P, V325M, D328K, R332K
light: not shown
notes: as for B7
B14: 6RC1IgG_012 (antibody, V domains shown)
VH: QVQLVQSGAEVKKPGASVKVSCKASGYTFTSYGISWVRQAPGQGLEWMGWISAYNGNTNYAQKLQGRVTMTTDTSTSTAYMELRSLRSDDTAVYYCARATYYYDSSAPAFDIWGQGTMVTVSS
VL: DIQMTQSPSSLSASVGDRVTITCRASQSIEDDLAWYQQKPGKAPKLLIYEASTLQSGVPSRFSGSGSGTDFTLTISSLQPEDFATYYCQQHDDSPLTFGQGTKVEIKR
B15: 6RC1IgG_010 (antibody, V domains shown)
VH: QVQLVQSGAEVKKPGSSVKVSCKASGGTFSSYAISWVRQAPGQGLEWMGGIIPIFGTANYAQKFQGRVTITADESTSTAYMELSSLRSEDTAVYYCARAAFLEWPIWGSEYFQHWGQGTLVTVSS
VL: B14 VL with E50H, T53S, H91R, D93S, S94Y
B16: 6RC1IgG_019 (antibody, V domains shown)
VH: EVQLVQSGAEVKKPGSSVKVSCKASGGTFSSYAISWVRQAPGQGLEWMGGIIPIFGTANYAQKFQGRVTITADESTSTAYMELSSLRSEDTAVYYCARDRGSGFNWGNYAFDIWGQGFSVTVSS
VL: B14 VL with T53N, H91Y, D93R, S94Y, L96Y
B17: tocilizumab (antibody, human IgG1, kappa)
heavy: not shown
light: not shown
notes: also called anti-IL-6R antibody (tocilizumab)
B18: IL6R-BP557/IL6R-L (antibody, human IgG1, kappa)
heavy: B1 heavy with D235E, S269G, Y298D, D328K
light: not shown
notes: copies: 2 + 2
B19: IL6R-BP493/IL6R-L (antibody, human IgG1, kappa)
heavy: B1 heavy with D235E, D239G, V266I, S269A, D270E, Y298D, D328K, R332A
light: not shown
notes: copies: 2 + 2

biological target: T1, human FcγRIIa type H (allotype H131) …; test: SPR (Biacore), antibody captured, FcγR analyte

Row | Kd [nM] | Binder
1 | 9000 | B1
2 | 20000 | B2
3 | 7000 | B3

biological target: T2, human FcγRIIb extracellular domain with …; test: SPR (Biacore), parent IL6R-B3/IL6R-L

Row | KD(IIb) parent/KD(IIb) altered polypeptide | Binder
4 | 128 | B4
5 | 110 | B5
6 | 131 | B6

biological target: T3, human FcγRIIa type R extracellular …; test: SPR (Biacore), parent IL6R-B3/IL6R-L

Row | KD(IIaR) parent/KD(IIaR) altered polypeptide | Binder
7 | 1.5 | B4
8 | 0.7 | B5
9 | 1.2 | B6

biological target: T7, human FcγRIa extracellular domain with C-terminal His tag (human, UniProt P12314 16-292); test: SPR (Biacore)
T7 construct: extracellular domain; also called FcgRIa
T7 sequence (P12314 16-292): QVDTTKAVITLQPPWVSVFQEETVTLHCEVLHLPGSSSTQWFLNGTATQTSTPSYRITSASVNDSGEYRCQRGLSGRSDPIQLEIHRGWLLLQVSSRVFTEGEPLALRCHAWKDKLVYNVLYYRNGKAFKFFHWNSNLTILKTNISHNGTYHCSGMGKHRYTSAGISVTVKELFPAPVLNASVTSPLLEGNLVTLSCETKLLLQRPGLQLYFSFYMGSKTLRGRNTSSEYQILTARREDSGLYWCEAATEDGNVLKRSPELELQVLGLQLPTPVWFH

Row | Kd [nM] | Binder
10 | 9 | B7
11 | 98 | B8
12 | 10 | B9
13 | 7 | B10

biological target: T4, human FcγRIIa type H extracellular …; test: SPR (Biacore)

Row | Kd [nM] | Binder
14 | 7000 | B11

biological target: T5, human FcγRIIb extracellular domain with …; test: SPR (Biacore)

Row | Kd [nM] | Binder
15 | 1000 | B7
16 | 40 | B12
17 | 500 | B10
18 | 300 | B13

biological target: T8, human FcγRIIIa type V extracellular domain with C-terminal His tag (human, UniProt P08637 17-208); test: SPR (Biacore)
T8 construct: extracellular domain; also called FcγRIIIaV; FcgRIIIaV
T8 sequence (P08637 17-208 F176V): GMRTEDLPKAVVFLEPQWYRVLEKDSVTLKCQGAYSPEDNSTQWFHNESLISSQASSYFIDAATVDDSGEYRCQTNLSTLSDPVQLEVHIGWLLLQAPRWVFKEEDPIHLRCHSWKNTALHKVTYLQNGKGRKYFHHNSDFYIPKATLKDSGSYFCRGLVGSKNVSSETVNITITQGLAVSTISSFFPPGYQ

Row | Kd [nM] | Binder
19 | 30000 | B11
20 | 70000 | B8

biological target: T6, soluble human IL-6 receptor; test: SPR (Biacore T100), antibody captured on a Protein A/G chip (CM5), human IL-6 receptor as analyte, 1.2 mM CaCl2, pH 7.4, 37 °C
Method: The interaction was analyzed in solutions at 1.2 mM and 3 μM calcium ion concentration, corresponding to high and low calcium ion concentration conditions, respectively. An appropriate amount of Protein A/G (Invitrogen) was immobilized onto a Sensor chip CM5 (GE Healthcare) by an amino coupling method, and antibodies of interest were captured onto the chip. The two types of running buffers used were: 20 mM ACES/150 mM NaCl/0.05% (w/v) Tween20/1.2 mM CaCl₂ (pH 7.4); and 20 mM ACES/150 mM NaCl/0.05% (w/v) Tween20/3 μM CaCl₂ (pH 7.4). These buffers were each used to dilute human IL-6 receptor. All measurements were carried out at 37° C.
Then, 10 mM glycine-HCl (pH 1.5) was injected at a flow rate of 30 μl/min for 30 seconds to regenerate the sensor chip.

Row | binding result | Binder
21 | binds | B14
22 | binds | B15
23 | binds | B16
24 | binds | B17

biological target: T2, human FcγRIIb extracellular domain with …; test: SPR (Biacore); worded summary of Table 28

Row | FcγRIIb-binding activity as compared to IL6R-B3/IL6R-L [times] | Binder
25 | ≥ 100 | B4
26 | ≥ 100 | B5
27 | ≥ 100 | B18
28 | ≥ 100 | B6
29 | ≥ 100 | B19

biological target: T3, human FcγRIIa type R extracellular …; test: SPR (Biacore); worded summary of Table 28

Row | FcγRIIaR binding as compared to IL6R-B3/IL6R-L [times] | Binder
30 | ≤ 1.5 | B4
31 | ≤ 1.5 | B5
32 | ≤ 1.5 | B18
33 | ≤ 1.5 | B6
34 | ≤ 1.5 | B19

biological target: T2, human FcγRIIb extracellular domain with …; test: SPR (Biacore), ratio of KDs

Row | KD(IIaH)/KD(IIb) | KD(IIaR)/KD(IIb) | Binder
35 | 1030 | 29.9 | B4
36 | 712 | 58.4 | B5
37 | 678 | 38.8 | B6

biological target: T2, human FcγRIIb extracellular domain with …; test: SPR (Biacore)

Row | Kd [nM] | Binder
38 | 24 | B4
39 | 28 | B5
40 | 20 | B18
41 | 24 | B6
42 | 21 | B19

biological target: T3, human FcγRIIa type R extracellular …; test: SPR (Biacore)

Row | Kd [nM] | Binder
43 | 720 | B4
44 | 1600 | B5
45 | 850 | B18
46 | 920 | B6

biological target: T9, human FcγRIa extracellular domain with C-terminal His tag (human, UniProt P12314 16-292); test: SPR (Biacore)
T9 construct: extracellular domain
T9 sequence (P12314 16-292): as the sequence (P12314 16-292) above

Row | Kd [nM] | Binder
47 | 2.3 | B4
48 | 1.1 | B5
49 | 0.79 | B6
50 | 0.82 | B19
